Seven substances from PMC11095456 can be followed below.

Experiment [1] deals with EVI1 MAPPIT bait, wild type. In words: MAPPIT. To be noted: HEK293T cells; +Epo; cotransfected with EVI1; parent: est. 29; read off a plot; scale: % of maximum induction.
Experiment [2] has as its target CTBP2 MAPPIT prey, wild type (UniProt P56545). The experiment can be described thus: MAPPIT. To be noted: HEK293T cells; +Epo; cotransfected with CTBP2; parent: est. 32; read off a plot; scale: % of maximum induction.

For the substance “CTBP2 MAPPIT prey, wild type (from UniProt P56545) A58E”, in experiment [1], the response turned out to be 29. Same read-out and setting: under “CTBP2 MAPPIT prey, wild type (from UniProt P56545) A58E; V72R” stands 10; under “CTBP2 MAPPIT prey, wild type (from UniProt P56545) V72R”, 11. For EVI1 MAPPIT bait, wild type PFDLT>PFAST, in experiment [2], the response came out at 30.

In the case of EVI1 MAPPIT bait, wild type PLDLS>PLASS, the response in experiment [2] turned out to be 3. Same read-out and setting: under EVI1 MAPPIT bait, wild type PLDLS SWAP stands 5; under EVI1 MAPPIT bait, wild type PFDLT SWAP, 3.
